# Patent US20240317857A1 (AMPSOURCE BIOPHARMA SHANGHAI, published 2024)
# T1: His-labeled cynomolgus monkey CD3E (purchased from Acro Biosystems) (cynomolgus monkey, UniProt Q95LI5 22-117)
# T1 construct: also called Cynomolgus monkey CD3E antigen; not shown: His label
# T1 sequence (looked up): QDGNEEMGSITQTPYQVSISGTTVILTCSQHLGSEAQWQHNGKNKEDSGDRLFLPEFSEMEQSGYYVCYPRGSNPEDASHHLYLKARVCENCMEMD
# Assays:
# [1] = biological target: T1, His-labeled cynomolgus monkey CD3E …; assay: ELISA, plate coated with His-labeled cynomolgus monkey CD3E
# Procedure: (§1) A microtiter plate was coated with 0.1 μg/mL His-labeled human or cynomolgus monkey CD3E (purchased from Acro Biosystems) (100 μL/well) overnight at 4° C. The coating solution was discarded, and the microtiter plate was blocked with 1% PBSB (200 μL/well), incubated for 1 h at 37° C. and washed with PBS containing 0.05% Tween-20. The diluted CD3 humanized antibodies AB611 and AB614 with a series of concentrations were added (100 μL/well), incubated for 1 h at 37° C. and washed with 0.05% PBST, and HRP-labeled goat anti-human IgG (H+L) (Jackson Laboratory) was added as the detection antibody and incubated for 1 h at 37° C. The wells were washed three times with 0.05% PBST, added with TMB (100 μL/well) and developed at room temperature for 5 min. 0.2 M H₂SO₄ was added to terminate the reaction, 50 μL/well. Absorption values were read by a microplate reader at double wavelengths 450 nm/620 nm. Plotting was performed by software GraphPad Prism 6 with OD 450 nm/620 nm as the Y-axis and an antibody concentration as the X-axis.
# His-labeled human CD3E [2] = biological target: T2, His-labeled human CD3E (human, UniProt P07766 23-126); assay: ELISA, plate coated with His-labeled human CD3E
# T2 construct: also called human CD3E antigen; antigen CD3E; not shown: His label
# Procedure: as §1
# [3] = biological target: T3, human CD3 on human T cells (human, UniProt P07766 23-207); assay: cell-based or functional assay
# His-labeled human CD3E [4] = biological target: T2, His-labeled human CD3E; assay: BLI (Octet), method of Example 3: His-labeled human CD3E on Ni-NTA sensors
# Procedure: The binding affinity constants of the purified murine monoclonal antibodies to antigen CD3E were determined by […] (BLI) with the ForteBio Octet RED&QK system from PALL Corporation. Concentration gradients of a multichannel parallel quantitative analysis were set to 3.125, 6.25, 12.5, 25, 50 and 100 nM, and His-labeled human CD3E (10 μg/mL) was coupled to Ni-NTA sensors.
# For example, the experimental method for determining the kinetic constants and affinity equilibrium dissociation constants of the humanized antibodies was as described in Example 3.
# [5] = biological target: T3, human CD3 on human T cells; assay: flow cytometry on human primary T cells
# T3 sequence (P07766 23-207): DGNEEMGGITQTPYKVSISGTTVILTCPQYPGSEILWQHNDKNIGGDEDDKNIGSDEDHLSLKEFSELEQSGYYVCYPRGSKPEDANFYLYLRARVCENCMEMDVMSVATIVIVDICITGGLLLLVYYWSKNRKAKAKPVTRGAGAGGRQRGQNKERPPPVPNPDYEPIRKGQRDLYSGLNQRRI
# T2 sequence (P07766 23-126): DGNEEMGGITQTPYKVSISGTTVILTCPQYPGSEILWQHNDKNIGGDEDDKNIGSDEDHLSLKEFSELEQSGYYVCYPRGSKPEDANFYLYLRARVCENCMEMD
EC50 [1] [pM],EC50 (His-labeled human CD3E [2]) [pM],EC50 of activating T cells (luciferase of NFAT RE reporter Jurkat T cells) [3] [nM],Kd (His-labeled human CD3E [4]) [nM],koff (His-labeled human CD3E [4]) [s⁻¹],kon (His-labeled human CD3E [4]) [M⁻¹ s⁻¹],EC50 [5] [nM],Binder
7.55,9.13,0.142,0.0196,1.45e-05,741000,1.18,"humanized antibody AB614 (antibody, human IgG4 S228P, kappa, V domains shown, Humanized from AP591 CDRs) VH: EVQLLESGGGLVQPGGSLKLSCAASGFTFNTYAMNWVRQAPGKGLEWVGRIRSKINNYATYYADSVKDRFTISRDDSKNTAYLQMNNLKTEDTAMYYCVRHDNFYGSTYSWFADWGQGTLVTVSS VL: ELVVTQEPSLTVSPGGTVTLTCRSSTGVVTTSNYANWVQEKPDHLFTGLIGATNYRAPGTPARFSGSLLGGKAALTLSGVQPEDEAIYFCVLWYSNHWVFGGGTKLTVLR"
4.83,8.33,,,,,0.174,"humanized antibody AB611 (antibody, human IgG4 S228P, kappa, V domains shown, Humanized from AP831 CDRs) VH: EVQLVQSGAEVKKPGSSVKVSCKASGYTFTNNYIHWVKEKPGQGLEWIGWIYPGDGTTKYNEKFKGKTTLASDKSTNTAYMELSSLRSEDTAIYFCTRNNNYYFDYWGQGTTVTVSS VL: DIVMTQSPDSLAVSLGERATMNCKSSQSLFNSRTRKNYLAWYQQKPGESPKLLIYWASTRESGVPDRFSGSGSGTDFTLTISSLQAEDVAVYYCKQSFILRTFGGGTKVEIKR"
